What is called Kd is the constant that tells how readily two partners part at equilibrium. Lower therefore signals tighter binding. A word on the stoichiometry N: it is a count of units in the complex or per binding partner.

This passage reports Kd and stoichiometry N results from article PMC9653380.

For test [1], the target named is Fc-tagged human ACE2 (human) (UniProt Q9BYF1). Description: BLI. (In BLI a coated tip is dipped into the sample, and binding shifts an interference pattern.)
The target of test [2] is variant S-trimer (prefusion-stabilized SARS-CoV-2 spike trimer, S-6P backbone, with K417N, E484K, N501Y and D614G) (SARS-CoV-2 | bacteriophage T4). Description: SEC.

In test [1], “variant S-trimer (prefusion-stabilized SARS-CoV-2 spike trimer, S-6P backbone, with K417N, E484K, N501Y and D614G)” yielded a Kd of 9.14 nM. Moreover, the stoichiometry N in test [2] was 3.
